Laboratory results published in patent publication US20160304566A1.

Key:
human IgG-HRP (human) [1] = test: ELISA, coated protein, human IgG-HRP, n=12
human IgG-HRP (human) [2] = test: ELISA, SpA coated, human IgG-HRP, PBS in place of F(ab)2, n=5

Row | Substance | OD450 nm, Mean value (human IgG-HRP (human) [1]) [OD] | OD450 nm, Ave (human IgG-HRP (human) [2]) [OD]
1 | SpA5 (RRVV) (from UniProt P38507 37-327) | 0.062 | 
2 | SpA5wt (from UniProt P38507 37-327) | 0.625 | 
3 | SpA (252) (from UniProt P38507 37-508) | 0.635 | 0.641
